Laboratory results: the DeepSol protein solubility set

Experiment: soluble on expression in E. coli; label from the status in PepcDB or PDB records

Soluble on expression in E. coli, not soluble:
MGSDKIHHHHHHMVDGMKHLILKVTNRCNLNCIYCYANNKNNKDMDFKTAKNAIDYLLNLDNQIKIQFTGGEPLLNFNLIEKIVDYCNDNYSNCNIQYAIQTNATLINEKIAEKIKELDIKVGISIDGLEINDILRPYKNGKPSTLDTLKGMYILKSYNIPFGITTVVTNKNLPYLEEFVKYLIAFGVKSISFDLLKPKKKEHLTLMPNIEEFNKLLNKLGRYPIYIKNLQKRPKDKYCYLNSGDLLFVNEFGDIYLCPTLEGLSCLGNINDKNKIKLPKVKSKGCYAREFLIKTFKK, MDESNVSQELLNSNRTEIARCVLLKDLVVMYGGYEVYANHVDLLMCFHQLMIVLAAPPIKPMQKEPGTLLPPRAVVYKLPAIKGSMKDAFSAHKLLKKSYAKPIVDISSTSGDSDPEWWSDRELTPDLNLKRELLLKKARFSRKTFDKRSSYIAHFKKSHLENYLNSDSDTVSNEKPKTLAQLKNFSKSNLVEYHPSMYRDVGVVIIFFSIYYYDLNSFKVNSEIEKQDKIFQEYKKWIFQSVQERRFVSKECTEPKVLSQLHVHVHQN, MDFKSSDAIRGPRTEDHLPHTAQAAVKIVIVGGFGVGKTTMVGSVSEIRPLTTEETMTQMGIGVDDNYGSESKTATTVAMDFGRISITEQLVLYLFGTPGQERFWFLWNGLFEGALGAVVLIDTRRLEVSFDVIGRLEERGVPFVIAVNDFPDAPRYPVEDLRGALDLTEDIPIVKCDARRRASSREVLMTLMHFLHSLAVSKTSVLEHHHHHH, MSTPRTVLVVGGGAAGNAVTILLRRAGLTVDLVEAKDDWNATAGSGITLQGNALRVLRELGVWEQVEASGFGFGSVGITTPDGTVLHVQDDLRTGGDDLPATVGMQRPRLQQILIEAVRASGASVRLGTTAEILDQDSDGVHVRLSDGSEHRYDLVVAADGLGSATRAAIGITDKPEPTGMAIWRIAAPRPAGLTRTDLAYGGPAHIAGYCPTGETTLYAYVVEANRDRAGIPPASYADEMRGLTRHYGGFWPDITEHITDPAKVNYTWFDRLLVEGSWHRGRVVLVGDAAHCCPPTLAQGAALSLEDAWVLAQMLTGSDVWDDALFQAYYERRIARVRPVVAASVQIGQWQLDGVRDADLPGLMGRTMTMLRELPLEHHHHHH, MSFDGFFLHHLTKELQEQILWGRIQKVNQPFEQELVLTIRNNRQNYKLLLSAHPVFGRVQLTKTDFQNPQSPNTFTMIMRKYLQGALIENIEQIENDRILEMSISNKNEIGDQIKVTMIIEIMGKHSNIILLDKNEGKITESIKHIGFTQNSYRTILPGSRYLAPPKIQAQNPFTISDETLFEILQTEDLAANNLQKLFQGLGRDTAAELSQRLKTDTFKNFKLFFDSPTSPTLTEKSFTAITFSNSQETFGSLSDLLDYFYQDKAERDRIAQQASDLIHRIQNELEKNKKKLKKQEQELQDTDKAEEFRQKGELLTTYLNQVPNNQDSVELDNYYTGQKVSIPLNKALTPSQNAQRYFKKYQKLKEAVKHLGSLISETKATIQYLESVDNALNQASLSEISEIREELVQTGFVKRRHREKIQKRKK, MTTSHRPQLEARSGAKAAAYTPTGIEHARLLPGHTTLKYRKFKEEENLRANCAQEDRSNDKSLEEAVMNEEKQDVVGSGNLQETRSEKDQKDSLQELLVTQKNKVEDKAELEGNEQLKGGNSSRRSWRKGTAFGRHKVTKETNIKEHATKKSASGYINDMTKSEYHQEFLHKHVR, MKILGISGSPRKEGTHFAVNYALDYLKEKGFETKYISVFQKKIEFCIHCDYCLRTKEGCVHKDSMQEIYNGLKWADAVILGSPCYNGTVSGQLKTIMDRCRAIFAEDIDVLRNKYGMALSVGGDRNGGQEVVLKTIHDFYILNGVIPVSGGSFGSNLGATFWSQDNGKKGVEEDTEGIRTLKRTLKKFYNCLNEEGELEHHHHHH, MGSDKIHHHHHHMKSNGHATRLRTTPSLGGQSHDTRARMIEAAIEVFGSVGYDGATTRQLAERAGVNQAAIPYHFGGKRELYVAAAQAIADYMRSRIEPLIDELRTASVDPVGHIDAVVMRFFQFIAGDEEPEAWTVFFVRCERDADDAFRIIYYQSVARFQAALIAEVAAATGRSPDDEDLKVRVAVVLGAISNFRTLRNVMLSSLGWDTFDAERKLTVETAVRRLALAELLGIHADAPSDVHPPLGSASGAQPSPTARP, MARRISSQGKVTISVDEYSSNPTQAFTHYNINQSRFQPPHVHMVEPLPYDAPKSVGHTRFVCVSDTHSRTDGIQMPFGDVLLHTGDFTELGLPSEVKKFNDWLGGLPYEYKVVIAGNHELTFDKDFMAELIKQDYYRFPSVSKLRSEDFDDVQSLLTNCVYLQDSEVTIKGFRIYGAPWTPWFNGWGFNLPRGQSLLDKWNQIPEDVDILMTHGPPLGFRDWVPKELQRVGCVELLNTVQKRVRPKLHAYGGIHEGYGIMTDGYTTFINSSTCTVSFQPTNPPIIFDLPNPGNS, MGSDKIHHHHHHMKAVNENLKEQFVKRNKLAICATLRELKKNDTSLMVHHSHGQFISKILDVVPDNNLFVFDLGGIERENSRALYAGALSFIAEPAGAKVEFNAEIAKTVNYDGLPAFSAQIPELLYLIQRRTYFRINTPLWPPLTCRGELPDDSVFTFTIKDLSLGGLSLYTDRDTTGLLTEGDIIKSVEMDLADHGFFCVDLQFVGQAMVKIVDNKGELKLTQRLSFKFPSLNAAQERDLQQVIFELEKLQNEKKKRFQEL

Soluble on expression in E. coli, soluble:
MAEPTAKAAPYENLMVPSPSMGRDIPVAFLAGGPHAVYLLDAFNAGPDVSNWVTAGNAMNTLAGKGISVVAPAGGAYSMYTNWEQDGSKQWDTFLSAELPDWLAANRGLAPGGHAAVGAAQGGYGAMALAAFHPDRFGFAGSMSGFLYPSNTTTNGAIAAGMQQFGGVDTNGMWGAPQLGRWKWHDPWVHASLLAQNNTRVWVWSPTNPGASDPAAMIGQAAEAMGNSRMFYNQYRSVGGHNGHFDFPASGDNGWGSWAPQLGAMSGDIVGAIRHHHHHH, SLQPEAPKPPQIGMANPASVYCQQKGGTLIPVQTAQGVSNNCKLPGGETIDEWALWRLDHPAGEK, GPSRVVYLGSIPYDQTEEQILDLCSNVGPVINLKMMFDPQTGRSKGYAFIEFRDLESSASAVRNLNGYQLGSRFLKCGYSSNSDISGVSQQQQQQYN, MQTFQADLAIVGAGGAGLRAAIAAAQANPNAKIALISKVYPMRSHTVAAEGGSAAVAQDHDSFEYHFHDTVAGGDWLCEQDVVDYFVHHCPTEMTQLELWGCPWSRRPDGSVNVRRFGGMKIERTWFAADKTGFHMLHTLFQTSLQFPQIQRFDEHFVLDILVDDGHVRGLVAMNMMEGTLVQIRANAVVMATGGAGRVYRYNTNGGIVTGDGMGMALSHGVPLRDMEFVQYHPAGLPGSGILMTEGCRGEGGILVNKNGYRYLQDYGMGPETPLGEPKNKYMELGPRDKVSQAFWHEWRKGNTISTPRGDVVYLDLRHLGEKKLHERLPFICELAKAYVGVDPVKEPIPVRPTAHYTMGGIETDQNCETRIKGLFAVGECSSVGLHGANRLGSNSLAELVVFGRLAGEQATERAATAGNGNEAAIEAQAAGVEQRLKDLVNQDGGENWAKIRDEMGLAMEEGCGIYRTPELMQKTIDKLAELQERFKRVRITDTSSVFNTDLLYTIELGHGLNVAECMAHSAMARKESRGAHQRLDEGCTERDDVNFLKHTLAFRDADGTTRLEYSDVKITTLPPAKRVYGGEADAADKAEAANKKEKANG, MSLSVQREDVDIKLIAIDMDGTLLNDEQLISDENRKAIREAEDKGVYVVISTGRTLMTCRELAESLKLSSFLITANGSEIWDSNFNLVERKLLHTDHIQMMWDLRNKHNTNFWASTVNKVWRGEFPENITDHEWLKFGFDIEDDDIRNEVLEELRKTKSSEITNSSPTNIEVNALGINKAAAPCQGYGKLGFTMENVMAMGDSLNDIAMIKEAGLGVAMGNAQDIVKETADYITDTNIEDGVAKAIRHWVLEGHHHHHH, MSLTQVPAGQFTATKNLRPAAKPGKDVVLRVYSDFQCPYCQKLELETMPALLRALPDDVRVEFHQFPLEQIHPLARPAAEASECAAQQGRFWDYKDALFRDRSWLQNNPNETFLRLAGDLKLDPGKFKDCLALRGGKAGVDAGLAEAQQLGLNATPTVFVDGYRVGNPFDTAAVLQLIDVARATREGHHHHHH
